# Biological target: C3d, P01024
# Experiment: SPR, 0.5 µM FH with anti-FH.07 Fab′ (2 to 1 molar ratio) over immobilised C3d
# Conditions: remark: other sources report otherwise
# Chain of C3d, P01024 (P01024 1002-1303 limits assumed): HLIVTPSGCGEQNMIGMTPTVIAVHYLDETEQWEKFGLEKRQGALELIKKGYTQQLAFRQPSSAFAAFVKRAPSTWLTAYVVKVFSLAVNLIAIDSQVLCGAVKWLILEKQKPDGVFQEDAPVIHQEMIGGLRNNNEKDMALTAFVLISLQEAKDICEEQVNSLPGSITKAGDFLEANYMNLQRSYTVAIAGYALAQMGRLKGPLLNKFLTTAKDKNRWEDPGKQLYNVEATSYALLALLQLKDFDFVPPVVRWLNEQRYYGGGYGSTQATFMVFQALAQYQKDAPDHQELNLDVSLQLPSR
binder,measurement,value
"human factor H, P08603 19-1231 (protein, UniProt P08603 19-1231, looked up) EDCNELPPRRNTEILTGSWSDQTYPEGTQAIYKCRPGYRSLGNVIMVCRKGEWVALNPLRKCQKRPCGHPGDTPFGTFTLTGGNVFEYGVKAVYTCNEGYQLLGEINYRECDTDGWTNDIPICEVVKCLPVTAPENGKIVSSAMEPDREYHFGQAVRFVCNSGYKIEGDEEMHCSDDGFWSKEKPKCVEISCKSPDVINGSPISQKIIYKENERFQYKCNMGYEYSERGDAVCTESGWRPLPSCEEKSCDNPYIPNGDYSPLRIKHRTGDEITYQCRNGFYPATRGNTAKCTSTGWIPAPRCTLKPCDYPDIKHGGLYHENMRRPYFPVAVGKYYSYYCDEHFETPSGSYWDHIHCTQDGWSPAVPCLRKCYFPYLENGYNQNYGRKFVQGKSIDVACHPGYALPKAQTTVTCMENGWSPTPRCIRVKTCSKSSIDIENGFISESQYTYALKEKAKYQCKLGYVTADGETSGSITCGKDGWSAQPTCIKSCDIPVFMNARTKNDFTWFKLNDTLDYECHDGYESNTGSTTGSIVCGYNGWSDLPICYERECELPKIDVHLVPDRKKDQYKVGEVLKFSCKPGFTIVGPNSVQCYHFGLSPDLPICKEQVQSCGPPPELLNGNVKEKTKEEYGHSEVVEYYCNPRFLMKGPNKIQCVDGEWTTLPVCIVEESTCGDIPELEHGWAQLSSPPYYYGDSVEFNCSESFTMIGHRSITCIHGVWTQLPQCVAIDKLKKCKSSNLIILEEHLKNKKEFDHNSNIRYRCRGKEGWIHTVCINGRWDPEVNCSMAQIQLCPPPPQIPNSHNMTTTLNYRDGEKVSVLCQENYLIQEGEEITCKDGRWQSIPLCVEKIPCSQPPQIEHGTINSSRSSQESYAHGTKLSYTCEGGFRISEENETTCYMGKWSSPPQCEGLPCKSPPEISHGVVAHMSDSYQYGEEVTYKCFEGFGIDGPAIAKCLGEKWSHPPSCIKTDCLSLPSFENAIPMGEKKDVYKAGEQVTYTCATYYKMDGASNVTCINSRWTGRPTCRDTSCVNPPTVQNAYIVSRQMSKYPSGERVRYQCRSPYEMFGDEEVMCLNGNWTEPPQCKDSTGKCGPPPPIDNGDITSFPLSVYAPASSVEYQCQNLYQLEGNKRITCRNGQWSEPPKCLHPCVISREIMENYNIALRWTAKQKLYSRTGESVEFVCKRGYRLSSRSHTLRTTCWDGKLEYPTCAKR",fold increase of the measured interactions (RU) with anti-FH.07 Fab′ against FH alone,> 2 fold
